The target of this assay is recombinant Impβ (human, UniProt Q14974 1-876). The assay can be described thus: pull-down.

This is an account of results in article PMC2964165 (The EMBO Journal, 2010).

recombinant Impβ, sequence (Q14974 whole entry): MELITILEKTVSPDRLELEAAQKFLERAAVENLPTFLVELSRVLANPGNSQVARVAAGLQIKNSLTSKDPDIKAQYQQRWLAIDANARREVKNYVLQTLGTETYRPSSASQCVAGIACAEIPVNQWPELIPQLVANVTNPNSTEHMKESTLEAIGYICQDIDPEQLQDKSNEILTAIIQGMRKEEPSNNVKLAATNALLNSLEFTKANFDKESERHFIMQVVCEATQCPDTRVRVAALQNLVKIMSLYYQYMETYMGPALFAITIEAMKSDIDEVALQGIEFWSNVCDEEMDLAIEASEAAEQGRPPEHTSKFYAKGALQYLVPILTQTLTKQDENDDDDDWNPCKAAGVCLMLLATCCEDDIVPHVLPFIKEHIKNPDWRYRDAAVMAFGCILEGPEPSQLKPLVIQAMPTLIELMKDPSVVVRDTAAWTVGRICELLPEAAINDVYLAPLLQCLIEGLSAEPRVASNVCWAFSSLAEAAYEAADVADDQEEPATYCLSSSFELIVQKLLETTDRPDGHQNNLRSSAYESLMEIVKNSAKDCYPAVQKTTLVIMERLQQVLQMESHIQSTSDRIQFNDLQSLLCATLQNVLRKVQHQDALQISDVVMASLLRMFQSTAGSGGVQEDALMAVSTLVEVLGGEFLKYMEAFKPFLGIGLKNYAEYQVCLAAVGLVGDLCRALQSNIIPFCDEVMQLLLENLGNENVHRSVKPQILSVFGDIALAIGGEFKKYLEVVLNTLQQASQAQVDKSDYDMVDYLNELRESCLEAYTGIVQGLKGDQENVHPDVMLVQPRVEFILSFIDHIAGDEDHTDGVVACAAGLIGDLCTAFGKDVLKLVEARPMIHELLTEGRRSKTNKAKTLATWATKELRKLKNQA

B1: IBB peptide (peptide)
peptide: not shown
For B1, the binding result is given as “binds”.
